Molecular target: BD1 bromodomain construct (residues 44-168) of human Brd4 (human) (UniProt O60885)
Experiment: SPR

“YFV-C (residues 1-11) peptide acetylated at lysine 8” showed a Kd of 540 µM.
Work on “YFV-C (residues 1-11) peptide acetylated at lysine 4” yielded a Kd of 362 µM.

From article doi:10.1101/2020.05.05.078782
